Source: patent publication US8551493B2, “Peptide with reduced dimer formation” (Circassia Limited, priority 2007, dated 2013)
Where no end group is shown, it is not given here. [ ]: non-standard residue; d: D form. Abu = CC[C@H](N)C(=O)O

How the values were obtained:
[1] = Dimer formation of individual peptides and binary peptide mixtures, RP-HPLC; format: physicochemical
Procedure: The peptides used in this study have a minimum purity of >90%. The effectiveness of each additive to reduce dimer formation was assessed by size exclusion chromatography (SEC) and RP-HPLC. In SEC, molecules are separated based upon their apparent molecular weight. Smaller molecules can distribute into a greater proportion of the column matrix and are retained for longer than analytes of higher molecular weight. Dimers will elute from the column with an apparent molecular weight approximately twice that of the corresponding monomers. Separation by RP-HPLC separates species based on differences in their hydrophobicities. The amount of dimer formed is determined as a percentage of the total peak area ratio (% PAR) for the chromatogram.
Following the generation of data from the preliminary screening a further piece of work was undertaken to evaluate the ability of matrices containing Cysteine hydrochloride and 1-thioglycerol to inhibit the propensity of individual cysteine containing peptides and mixed pairs of these peptides to dimerize compared to the matrix alone. For each excipient mixtures of all the possible binary peptide combinations were prepared. […] The amount of dimer formed is determined as a percentage of the total peak area ratio (% PAR) for the chromatogram in each case.

PBMCs [2] = assay: Cytokine release assay (IFN-γ, IL-13) on PBMCs from house dust mite allergic individuals; format: cell-based, human; details: number of responders, N = 55 house dust mite allergic individuals; positive = at least 100 pg/ml of cytokine
Text: The following Table presents results from a cytokine release assay performed on PBMCs taken from a population of house dust mite allergic individuals (N=number of individuals in population). A positive response is considered to be production of at least 100 pg/ml of cytokine.

PBMCs [3] = assay: IL10 production assay in house dust mite allergic individuals (FIG. 1); format: cell-based, human; details: population of 34 house dust mite allergic individuals
Procedure: A typical cytokine release assay requires 40×10^6 PBMC's per subject. In more detail, 250 μl of a 200 μg/ml solution of the appropriate antigen or peptide concentration is distributed into the appropriate wells of 48 well plates. Plates are the incubated in a humidified 5% CO2 incubator at 37° C. for a maximum of 4 hours. 250 μl of a 5×10^6 cell/ml PBMC suspension is then added to each well and the plates returned to the incubator for 5 days. Following stimulation, samples of culture supernatant are harvested for testing by ELISA or multiplex bead assay according to standard protocols.

PBMCs [4] = assay: IFN-gamma production by PBMCs from ragweed allergic individuals (FIG. 2); format: cell-based, human; details: PBMCs from a population of ragweed allergic individuals
Procedure: Using methods equivalent to those in Example 2, these peptides were tested for the ability to induce cytokine production in PBMCs taken from a population of ragweed allergic individuals.

PBMCs [5] = assay: IL-10 cytokine release assay on PBMCs from seven ragweed allergic individuals; format: cell-based, human; details: for IL-10: ragweed allergic, PBMC supernatant
Text: The following Table presents results from a cytokine release assay performed on PBMCs taken from seven ragweed allergic individuals (A-G).

[6] = T = 1 week, 25° C./60% RH, Control matrix, individual peptide sample
[7] = T = 1 week, 25° C./60% RH, Control matrix, mixed sample MLA04 and MLA12
[8] = T = 72 h, Control matrix, individual peptide sample
[9] = T = 72 h, Control matrix, mixed sample MLA04 and MLA12

In the case of “KALPVVLENARILKNCV (listed as Felis catus) [MLA04, derived from cat allergen Fel d1]”, the “Percentage peak area ratio (% PAR), dimers formed” value (from here on “Percentage peak area ratio (% PAR)”) [1, 6] is reported as 4.76 % PAR, the “Percentage peak area ratio (% PAR)” value ([1]; T = 1 week, 25° C./60% RH, Control matrix, mixed sample MLA01 and MLA04) is reported as 2.71 % PAR and the “Percentage peak area ratio (% PAR)” value ([1]; T = 1 week, 25° C./60% RH, Control matrix, mixed sample MLA04 and MLA05) is reported as 2.32 % PAR. The “Percentage peak area ratio (% PAR)” value [1, 7] was 2.42 % PAR, the “Percentage peak area ratio (% PAR)” value [1, 8] was 2.51 % PAR and the “Percentage peak area ratio (% PAR)” value ([1]; T = 72 h, Control matrix, mixed sample MLA01 and MLA04) was 1.32 % PAR. For the same substance, the “Percentage peak area ratio (% PAR)” value ([1]; T = 72 h, Control matrix, mixed sample MLA04 and MLA05) was 0.91 % PAR and the “Percentage peak area ratio (% PAR)” value [1, 9] was 0.44 % PAR.
In the case of “TAMKKIQDCYVENGLI (listed as Felis catus) [MLA12, derived from cat allergen Fel d1]”, the “Percentage peak area ratio (% PAR)” value [1, 6] is reported as 1.72 % PAR, the “Percentage peak area ratio (% PAR)” value ([1]; T = 1 week, 25° C./60% RH, Control matrix, mixed sample MLA01 and MLA12) is reported as 3.43 % PAR and the “Percentage peak area ratio (% PAR)” value [1, 7] is reported as 2.13 % PAR. The “Percentage peak area ratio (% PAR)” value ([1]; T = 1 week, 25° C./60% RH, Control matrix, mixed sample MLA05 and MLA12) was 1.28 % PAR, the “Percentage peak area ratio (% PAR)” value ([1]; T = 1 week, 25° C./60% RH, Cysteine matrix, mixed sample MLA01 and MLA12) was 0.18 % PAR and the “Percentage peak area ratio (% PAR)” value ([1]; T = 1 week, 25° C./60% RH, Cysteine matrix, mixed sample MLA04 and MLA12) was 0.32 % PAR. For the same substance, the “Percentage peak area ratio (% PAR)” value [1, 8] was 0.46 % PAR, the “Percentage peak area ratio (% PAR)” value ([1]; T = 72 h, Control matrix, mixed sample MLA01 and MLA12) was 2.09 % PAR and the “Percentage peak area ratio (% PAR)” value [1, 9] was 1.1 % PAR. For the same substance, the “Percentage peak area ratio (% PAR)” value ([1]; T = 72 h, Control matrix, mixed sample MLA05 and MLA12) was 9.78 % PAR, the “Percentage peak area ratio (% PAR)” value ([1]; T = 72 h, Cysteine matrix, mixed sample MLA01 and MLA12) was 0.1 % PAR and the “Percentage peak area ratio (% PAR)” value ([1]; T = 72 h, Cysteine matrix, mixed sample MLA04 and MLA12) was 0.33 % PAR.
For RFGISNYSQIYPPNVNK [HDM100A], the “Responders with IFN-g >100” value (PBMCs [2]) was 10 and the “Responders with IL-13 >100” value (PBMCs [2]) was 8.
In the case of “HDM203B: house dust mite Der p1 derived peptide of the HDM203 family tested for IL10 production (DLRQMRTVTPIRMQGGSGS; HDM203B* synthetic peptide)”, the “IL10 production, engineered versus non-engineered peptides” value (PBMCs [3]) is reported as “not significantly different”.
In the case of “RFGISNYBQIYPPNVNK (RFGISNY[Abu]QIYPPNVNK) [HDM100B, B=2-aminobutyric acid]”, the “Responders with IFN-g >100” value (PBMCs [2]) is reported as 6 and the “Responders with IL-13 >100” value (PBMCs [2]) is reported as 10.
In the case of “NAQRFGISNYBQI (NAQRFGISNY[Abu]QI) [HDM102B, B=2-aminobutyric acid]”, the “Responders with IFN-g >100” value (PBMCs [2]) is reported as 15 and the “Responders with IL-13 >100” value (PBMCs [2]) is reported as 17.
For “RGW02: engineered (modified) peptide derived from ragweed pollen major allergen Amb a 1 (GSSQIWIDHSSLSKS; RGW02* synthetic peptide)”, the “IFN-gamma production compared with the non-engineered peptide” value (PBMCs [4]) was “does not induce significantly different responses”, the “IL-10” value (PBMCs [5]; Subject A) was 248.91 pg/mL and the “IL-10” value (PBMCs [5]; Subject B) was 227.18 pg/mL. The “IL-10” value (PBMCs [5]; Subject C) was 452.45 pg/mL, the “IL-10” value (PBMCs [5]; Subject D) was 80.54 pg/mL and the “IL-10” value (PBMCs [5]; Subject E) was 310.34 pg/mL. The “IL-10” value (PBMCs [5]; Subject F) was 203.12 pg/mL, the “IL-10” value (PBMCs [5]; Subject G) was 283.75 pg/mL and the “level of production of IL-10 compared with the original peptide (RGW02A)” value (PBMCs [5]; seven ragweed allergic individuals (A-G)) was “not significantly different”.
